Reference: paper PMC3314968

What was measured:
K48-linked diubiquitin = K48-linked diubiquitin (UniProt P0CG48); test: ITC; settings: domain or fragment
K63-linked diubiquitin = K63-linked diubiquitin (UniProt P0CG48); test: ITC; settings: domain or fragment

Chain of human UBAP1 SOUBA domain (389-502), wild-type (Q9NZ09 389-502): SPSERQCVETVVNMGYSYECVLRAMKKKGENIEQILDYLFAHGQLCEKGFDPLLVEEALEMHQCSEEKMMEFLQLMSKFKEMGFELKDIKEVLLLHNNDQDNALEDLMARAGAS

**Q.** How did the Kd (K48-linked diubiquitin) turn out when “human UBAP1 SOUBA domain (389-502), wild-type (from UniProt Q9NZ09 389-502)” was run?
**A.** 65 µM

**Q.** And the Kd (K63-linked diubiquitin)?
**A.** 41 µM
